Source: the nanobody polyreactivity screen of Harvey et al. (2022)

Assay: yeast display, Sf9 membrane polyspecificity reagent, FACS + sequencing; frameworks hold sequencing errors
In short: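 Nanobodies from a synthetic yeast display library (Saccharomyces cerevisiae BJ5465), induced 36–48 hours with galactose, were stained 1 hour at 4 °C with 10% biotinylated, detergent-solubilized Sf9 membrane reagent, enriched on streptavidin microbeads, then FACS-sorted. Anti-HA (expression) and streptavidin (reagent binding) fluorescence set low and high (top ~1%) gates. Polyreactivity labels come from the gate of origin. Genes were colony-PCR amplified, MiSeq 2 × 250 sequenced and filtered by CDR length.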

Sequence	polyreactivity (PSR sort gate)
QVQRVESGGGLVQAGGSLRISCAASGLTINNYARGWYRQAPGKERELVAAISFSGGDTYYADSVKGRFTISRDNAKNTVYLQMNSLKPEDTGVYYFAAESYSVLQMGYWGQGTQVTVSS	high polyreactivity
QVQRVESGGGLVQAGGSLRLSCAASAFTFGANAMGWSRQAPGKERELVAAISVSDGITYYADSVKGRFTISRDNAKNTVYLLMNSLKPEDTAVYYCAAETYGYLFHSYDYWGQGTQVTVSS	low polyreactivity
QVQRVESGGGLVQAGGSLRLSCAASANTYLNAMGWYIQAPGKESELVAAISKGGADTYYADSVKGRFTISRDNAKNTVYLQMTSLIPEDSAVYYCADVGYADGWWVDYPWTYDYWGQGTQVTVSS	low polyreactivity
QVQRVESGGGLVQAGGSLRLSCAASGFIFPWYAMGWYRQAPGKESELVAAISRGGRTNYADSVKGRFTISRDNAKNTVYLQMNSLKPEDTAVYYCAKKYYLSGSRADDSGGQGTQVTVSS	high polyreactivity
QVQRVESGGGLVQAGGSLRLSCAASGIIFQSYAMGWYRQAPGKERELVAAISRRGRRTYYADSVKGRFTFSRDNAKNTVDLQMTSLKPEDTAVYYCADRYRYAPYDYWGQGTQVTVSS	high polyreactivity
QVQRVESGGGLVQAGGSLRLSCAASGLTFNNNAMGCYRQAPGTARELVAAISRTAVRTYYADSVKGRFTISRDNAKNTVYLQMNSLKPEDTAVYYCNGVSYYGGYPVTYDYWGQGTQVTVSS	high polyreactivity
QVQRVESGGGLVQAGGSLRLSCAASGLTSKFYAMGWYRQAPRKERELVAAISGSGGSTYYADSVKGRFTISRDKAKNTVYLQMNSLKPEDTAVYYFAARYFGLRYYYWGQGTQVTVSS	high polyreactivity
QVQRVESGGGLVQAGGSLRLSCAASGRIFRYNAMGWYRQAPGKERELVAAISGTADRTYYADSVKGRFTNSRDNAKNTVYLQMNSLKPEDTAVYYCAVAYSYRYYYWGQGTQVTVSS	high polyreactivity
QVQRVESGGGLVQAGGSLRLSCAASGRIFSIYGMGWYRQAPGKERELVAVISGSVGITYYADSVKGRFTISRDNAKNTVYLQINSLKPEDTAVFYCNAKVRRRKYDYWGQGTQVTVSS	high polyreactivity
QVQRVESGGGLVQAGGSLRLSCAASGRPFDVYALGGYRQAPGKERELVATITYSGGITYYADSVKGRFTISRDNAKTTVYLQMNSLKPEDTAVYYPIGVGGDYDYWGQGTQVTVSS	low polyreactivity
QVQRVESGGGLVQAGGSLRLSCAASGRTFAPNAMGWYRQAPGKERELVAAITRRTGSTYYADSVKGRFTISRDNAKNTVYLQMNSLKPEDTAVYYCNGRRRTWYGFYYWGQGTQVTVSS	high polyreactivity
QVQRVESGGGLVQAGGSLRLSCAASGSIFRGYAMGWYRQEPEKERELVAAISRRGGSTYYADSVKGRFTISRDNAKNTVYLQMNSLKPEDTAVYYCAIDGTGAGTYDYWGQGTQVTVSS	low polyreactivity
QVQRVESGGGLVQAGGSLRLSCAASGSIFYWYAMGWNIQAPGEEREFVAAITWSGGSTYYADSVKGRFTISRDNAKNTVYLQMNSLQPEDTAVYSCAAQGRRYGYGDFYYWGQGSQVTVSS	high polyreactivity
QVQRVESGGGLVQAGGSLRLSCAASGSTFTRYGMGWYRQAPGKERELVAAISDRGVSTYYADSVKGRFTISRDNAKNTVYLQMNRMKPEDTAVYYCAAVFWVDILPGDYWGQGTQVTVSS	low polyreactivity
QVQRVESGGGLVQAGGSLRLSCAASGSTFYFYARGWYRQAPGKERELVAVITDGGAITYYADSVKGRFTISRDNAKNTVYLQMNSLKPEDTAVYYCAASSFGWYTRYDYWGQGTQVTVSS	high polyreactivity
QVQRVESGGGLVQAGGSLRLSCAASGSTLGYYTMGWYRQAPGKERELVAAIDWSGGSTYYADSVKGRFTISRDNAKNTGYLQMNSLKPEDTAVYYCNAEPWDPFYSPGRGGMDYWGQGTQVTVSS	low polyreactivity
QVQRVESGGGLVQAGGSLRLSSADSGLTLYRYAMGWYRQAPGKERELVAAISSGDRTNYADSVKGRFTISRDNAKNTVYLHMNSLKPEDTAVYYCAALRQARQKKYGYWGQGTQVTVSS	high polyreactivity
QVQRVESGGGLVQAGGSLRLSWAASGSTFSRYAMGWYRQAPGTERELVAAISASGGGTYYADSVKGRFTISRDNAKNTVYLQMNSLQPEDTAVFYCAAVRIARAVQDYDYWGQGTQVTVSS	high polyreactivity
QVQRVESGGGLVQAGGSLRLTSAVSGTTFYIYAMGWYRQAPGKEREFVAAIDFSGSSTYADSVKGRFTISRDNAKNTVYLQMNSLKPEDTEVYYCAAYQIFQYDGPYDYWGQGTQVTVSS	low polyreactivity
QVQRVESGGGLVQAGGSRRLSCAASGNIFRRYTMGWYRQAPGKERELVAAISRRGGSTHYADSVKGRFTISRDNAKNTVYLQMNSLKPEDTAVYYCNAYLVYSYSPSHYYGFGYWGQGTQVTVSS	high polyreactivity
QVQRVESGGGLVQAGGSRRLSCAASGSIFSAYAMGWYRQAPGKEREFVAAITRRGGNTYYADSVKGRFTISRDNAKNTVYLQMNSLKPDDTAVYYCAADAGGGPFDYSGQGTQVTVSS	low polyreactivity
QVQRVESGGGLVQAGGSRRLTCAASGRTSVPYARGWYRQAPGKERELVAAITSGGSTYYADSVKGRFTISRDNAKNTVYLQMNSLKPEDTAVYYCAASLPHSAPYTASYGSWGQGTQVTVSS	low polyreactivity

Sequence	polyreactivity (PSR sort gate)
QVQRVESGGGLVQAGGTLRLSCAASGNTFDYYAMGWYRQAPGKERELVAAIRYRGGTTYYADSVKGRFTISRDNAKNTVYLQMNSLKPEDTAVYYCAARYVPYSRRYNYWGQGTQVTVSS	high polyreactivity
QVQRVESGGGLVQARGSLRLSCAASGRIFYRYAMGWNIQAPGKERELVAAISGSVGSTYADSVKGRFTISRDNAKNTVYLQMNSLKPEDTAVYYCARETYRRYGAYDYWGQGTQVSVSS	low polyreactivity
QVQRVETGGGLFQAGGSLRLSCAASGRTFGPYAMGWYIQAPGKERELVAAIRYIDDSTFYADSVKGRFTISRDNAKNTVYVQMNSLKPEDTAVYYCAAQRRVVGRHGLSLIRYDYWGQGTQVTVSS	low polyreactivity
QVQVESGGGLVQAGGSLRLSCGASGSIIDQYVMGWYRQAPGKERELVAAISRGGRTYYADSVKGRFTISRDNAKNTVYLQMNSLNPEDTAVYYCATGYGPYLGRPHLTLYYYWGQGTQVTVSS	low polyreactivity
QVQVVDSGGGLVQAGGSLLLSCAASGSILGFNAMGWYRQSPGKEMELVASISSSGDSTYYADSEKGRFTISRDNAKNTVYLQMNSLKPEDTAVYYCATEGRTDYNREMEYWGQGSQVTVSS	low polyreactivity
QVQVVESGGGLVHAGGSLRLSCAASGITCVWNDMGWYRQPPGKEREFVAGITYRSGRTYYADSVKGRFTISRDNAKNTVYLQMNSLKPEDTAGYYCATTPRYTTYNYWGQGTQVTVSS	high polyreactivity
QVQVVESGGGLVKAAGSLGLSCSASGLNFRFYTMGWYRQAPGKERELVAAISTSGGSTYYADSVKGRFTISRDNAKNNVFLQMNSLKPEDTAVYYCIAVYAFNGYDYWGQGTQVTVSS	low polyreactivity
QVQVVESGGGLVQAGGRLRLSCAASGSTFKYYVMGWYRQAPGKERELVAAITRSGSTNYADSVKGRFRISRDNAKNTVYLQMNSLKPEDTAVYYCATDSLRLYGGKRDQYYWGQGTQVTVSS	low polyreactivity
QVQVVESGGGLVQAGGSIRLSCAASGSILSRYAMGWYRQAPGKERELFAAITSSGGTTYYADSVKGRFTISRDTAKNTVYLQMNSLKPEDTAVYYCADHGSRYGYGDFYYWGQGTQVTVSS	high polyreactivity
QVQVVESGGGLVQAGGSLRISCAASGSIFPGYDMGWYRQAPGKERELVAAIRTSGGSTNYADSVKGRFTISRDNAKNTVYLQMNSLKPEDTAVYYCAARTNSPRGTKRYYWGQGTQVTVSS	high polyreactivity
QVQVVESGGGLVQAGGSLRLSCAASGIIFKQNVMGRYIQAPGKERELVAAISRGGSTNYADSLKGRFTISRDNAKNTVYLQMNSLKPEDTEVYYCAARFVLRREYGYWGQGTQVTVSS	high polyreactivity
QVQVVESGGGLVQAGGSLRLSCAASGRIFYQNAMGWYRPAPGKERELVADISSGGSTYYADSVKGRFTISRDNAKNTVYLQMNSLKPEDTAVYYCNTPSGPGTVGSYRRIWYGYWGQGTQVTVSS	low polyreactivity
QVQVVESGGGLVQAGGSLRLSCAASGRIFYTNAMGWYRQAPGKERELVAVISWGGDTTYYADSVKGRFTISRDKAKNTVYLQMNSLKPEDTAVYYCNADWGPTYEIYDSWGQGTQVTVSS	low polyreactivity
QVQVVESGGGLVQAGGSLRLSCAASGSIFFFYAMGWYRQAPGQERELVAAITGSGGSTYYADSVKGRFTISRDKAKNTVYLQMNSLKPEDPAVYYCAVRTSRQVYSYGGYESWGHGTQVTVSS	low polyreactivity
QVQVVESGGGLVQAGGSLRLSCAASGSIFYDYAMGWYRQAPGKERELVAAISWSGGRTYYADSVKGRFTISRDYAKNTVYLQMNSLKPEDTAVYYCAATTGVRSRRYYYWGQGTQVSVSS	low polyreactivity
QVQVVESGGGLVQAGGSLRLSCAASGSILGLYAMGWYRQAPGKERELVAAITYRGGRTDYADSVKGRFTISRDNAKNTVYLQMNCLKPEDTAVYYCAAGYLPRPRYSTSYLYYYWGQGTQVTVSS	high polyreactivity
QVQVVESGGGLVQAGGSLRLSCAASGSTFGYYAMGWYRQAPGKERELVAAISGTGSTYYADSVKGRFTISRDNAKNTVFLQMNSLKPEDTAVYYCAAYPRGSQRYNYWGQGTQVTVSS	high polyreactivity
QVQVVESGGGLVQAGGSLRLSCAASGSTFVIYDMGWYRQAPGKERELVAVITIIGGSTYYADAVKGRFTISRDNAKNTVYLELNSLKPEDTAVYDCAVEVGYTDSPYSYDYWGQGTQVTVSS	low polyreactivity
QVQVVESGGGLVQAGGSLRLSCAASGSTLSKNAMGWYRQAPGKERELVAAITLRGGSTSFADSVKGRFTISRDNAMNTVYLHMNSLKPEDTAVYYCNAVSKFDYGYWVQGTQVTVSS	high polyreactivity
QVRLVESGGGLVQAGGSLRLSCAASGFTFVVNAMGWYRQAPGKERELVAAITCSGGRTYYADSVKGRFTISRDNAKNTVSLQMNSLKPEDTAVYYCNAEWDDYEIEYDYWGQGTQVTVSS	low polyreactivity
QVRLVESGGGLVQAGGSLRLSCAASGRIFYRYAIGWYRQAPGKERELVAAISSSGGSTYYADSVKGRFTISRDNAKNTVYLQMNSLKPEDTAVYYCAADAGSINSGYDYWGQGTQVTVSS	low polyreactivity
